Results: patent publication US20010039258A1, “Active agent transport systems” (Emisphere Technologies, Inc., priority 1990, published 2001)
Values belong to the molecule of their own block, whether it stands above or below them.

What was measured:
[1] = DSC of insulin with increasing guanidine hydrochloride; format: physicochemical
Procedure: DSC was performed with […] insulin (0.83 mM assuming a molecular weight of 6,000) in 50 mM phosphate buffer, pH 7.5. Each subsequent thermogram was corrected by background subtraction of a 0.6M guanidine-phosphate buffer solution.
Insulin was freshly prepared as a concentrated stock solution in 50 mM phosphate buffer, pH 7.5, and an appropriate aliquot was diluted in buffer, filtered though a 2 micron PTFE filter, and degassed for at least 20 minutes. The reference cell contained degassed buffer.
Scanning calorimetry was performed using 5 mg 0.83 mM porcine insulin (MW 6,000) per mL in 50 mM phosphate buffer, pH 7.5. All thermograms were performed on a Microcal MC-2 scanning calorimeter equipped with the DA2 data acquisition system operated in the upscale mode at 1° C./min (up to 90° C.), and data points were collected at 20 second intervals. All scans were initiated at least 20 degrees below the observed transitions for the active agent. All thermograms were corrected for baseline subtraction and normalized for the concentration of macromolecule. According to the methods of the Johns Hopkins Biocalorimetry Center, See, for example, Ramsay et al. Biochemistry (1990) 29:8677-8693; Schon et al. Biochemistry (1989) 28:5019-5024 (1990) 29: 781-788. […]

[2] = DSC of insulin, effect of ionic strength; format: physicochemical; conditions: pH 7.5
Procedure: (§1) Scanning calorimetry was performed using 5 mg 0.83 mM porcine insulin (MW 6,000) per mL in 50 mM phosphate buffer, pH 7.5. All thermograms were performed on a Microcal MC-2 scanning calorimeter equipped with the DA2 data acquisition system operated in the upscale mode at 1° C./min (up to 90° C.), and data points were collected at 20 second intervals. All scans were initiated at least 20 degrees below the observed transitions for the active agent. All thermograms were corrected for baseline subtraction and normalized for the concentration of macromolecule. According to the methods of the Johns Hopkins Biocalorimetry Center, See, for example, Ramsay et al. Biochemistry (1990) 29:8677-8693; Schon et al. Biochemistry (1989) 28:5019-5024 (1990) 29: 781-788.
A sample containing 6 mg/mL insulin (0.83 mM in 50 mM phosphate buffer, pH 7.5, containing 0.25, 0.5, or 1.0M NaCl) was used. Thermograms were performed according to the procedure in Example 9 and were corrected by subtraction of a 0.5M NaCl-phosphate buffer blank as described above.
The effect of increasing ionic strength on structure was assessed in DSC experiments where individual solutions were prepared so as to contain NaCl at concentrations ranging from 0.25-3M.

[3] = molecular target: salmon calcitonin (salmon) (UniProt P01263); assay: ITC, 30 C, pH 4.5 (30 mM sodium acetate-30 mM NaCl); perturbant in syringe, sCt in cell
Chain of salmon calcitonin (salmon) (P01263 83-114 limits assumed): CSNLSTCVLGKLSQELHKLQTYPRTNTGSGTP

[4] = molecular target: salmon calcitonin (salmon) (UniProt P01263); assay: ITC, 30 C, pH 6.6 (text: pH 6.5, 30 mM Hepes-30 mM NaCl); perturbant in syringe, sCt in cell
[5] = molecular target: salmon calcitonin (salmon) (UniProt P01263); assay: ITC, 30 C, pH 6.6 (text: pH 6.5); perturbant in syringe, sCt in cell
[6] = molecular target: salmon calcitonin (salmon) (UniProt P01263); assay: ITC, 30 C, pH 4.5; perturbant in syringe, sCt in cell
[7] = molecular target: T1, α-interferon (Homo sapiens, UniProt P01563); assay: Perturbant binding DSC with α-interferon; conditions: perturbant 0 mg/ml; α-interferon 0.64 mg/ml; pH 7.2
T1 construct: purchased Schering Plough Corp
T1 sequence (P01563 24-188): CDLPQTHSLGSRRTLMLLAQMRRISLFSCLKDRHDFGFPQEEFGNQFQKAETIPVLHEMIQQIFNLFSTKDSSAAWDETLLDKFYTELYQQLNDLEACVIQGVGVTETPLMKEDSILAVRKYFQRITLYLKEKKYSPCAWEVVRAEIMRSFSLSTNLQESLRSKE
Procedure: (§2) Perturbant binding DSC was conducted using 20 mM NaPhosphate buffer at pH 7.2. Dry perturbant was weighed out to make perturbant stock solutions. α-interferon stock was diluted in the buffer. α-interferon solution was not dialyzed prior to experiments for the purpose of having the same active concentration for the whole set.
DSC thermograms were generated with α-interferon at a concentration of 0.64 mg/ml and a perturbant (phenylsulfonyl-para-aminobenzoic acid purified to >98% (as determined by reverse phase chromatography prior to generation of the spectra)) at perturbant concentrations of 5, 10, 25 and 100 mg/ml. DSC was conducted on a DASM-4 differential scanning calorimeter interfaced to an IBM PC for automatic collection of the data. The scanning rate was 60° C./h.
The method of Example 19 was followed substituting α-interferon without perturbant. Results are illustrated in Table 9 below and FIG. 10. […]

[8] = DSC of α-interferon in GuHCl; format: physicochemical
Procedure: GuHCl 5M stock solution was prepared using 20 mM sodium phosphate, pH 7.2 buffer. After dilution, the pH of the stock was checked and adjusted by concentrated HCl. To determine the concentration of final solution the refractive index referenced in Methods in Enzymology, Vol. 6, page 43 by Yasuhiko Nozaki was used.
α-interferon stock (9.1 mg/mL) was mixed with sufficient amounts of GuHCl to yield the concentrations of Table 1A below:
as §1
GuHCL/α-interferon samples were prepared according to the method of Example 4. DSC scans were performed according to the procedure of Example 9.

[9] = DSC of α-interferon, pH dependence; format: physicochemical
Procedure: as §1
α-interferon stock (9.1 mg/mL) was diluted with buffer to a concentration of 0.6 mg/mL. The sample was dialyzed overnight in buffer (volume ratio of α-interferon to buffer was 1:4000). Since there was no extinction coefficient provided, concentration of the sample used was determined by comparison of absorption spectra of the sample before and after dialysis. For each particular pH, the absorbance of the nondialyzed α-interferon of known concentration was measured at 280 nm. Then after dialysis, absorbance was read again to account for the protein loss, dilution, etc. Buffer conditions and α-interferon concentrations were:
pH 3.0: Buffer—20 mM NaAc. [IFN]=0.50 mg/mL;
pH 4.1: Buffer—20 mM NaAc. [IFN]=0.53 mg/mL;
pH 5.0: Buffer—20 mM NaAc. [IFN]=0.37 mg/mL;
pH 6.0: Buffer—20 mM Na Phosphate. [IFN]=0.37 mg/mL;
pH 7.2: Buffer—20 mM Na Phosphate. [IFN]=0.48 mg/mL.
DSC scans were performed according to the procedure of Example 9. Although clear, transparent solutions of α-interferon were obtained for every pH at room temperature, there were noticeable signs of precipitation at pH 5.0 and 6.0 after the temperature scans.

[10] = molecular target: T1, α-interferon; assay: Isothermal titration calorimetry of perturbant complexing with α-interferon; format: binding; conditions: pH 7; read-out: apparent dissociation constant
[11] = Solubility of perturbant under the DSC buffer conditions; format: physicochemical; conditions: room temperature; buffer conditions of the DSC (20 mM NaPhosphate pH 7.2)
Procedure: as §2
DSC experiments were carried out according to the procedure of Example 19, with 0.5 mg/ml α-interferon mixed with (1) benzoyl para-amino phenylbutyric acid, (2) the perturbant of Example 22, or (3) the perturbant of Example 19.
Benzoyl para-amino phenylbutyric acid was poorly soluble under the buffer conditions. Maximum concentration at which the solution was still transparent at room temperature was ˜8 mg/mL. Therefore, the concentrations of the perturbant used were 2, 4, and 6 mg/mL. Results are illustrate in FIGS. 17 and 18. The dashed line in FIG. 17 represents the linear least squares, and the regression equation is at the top of FIG. 17.

[12] = molecular target: T1, α-interferon; assay: Isothermal titration calorimetry of perturbant complexing with α-interferon; format: binding; conditions: pH 7.2, 25° C.
Procedure: Isothermal titration calorimetry of perturbant complexing with α-interferon was performed at 25° C. at two different pH's. The buffers used were 20 mM NaPhosphate for pH 7.2 and 20 mM NaAc for pH 3.0. α-interferon solution was dialyzed before the experiment to reach the appropriate pH. Dry perturbants were weighed and diluted in dialysate.
ITC was conducted on a MicroCal OMEGA titration calorimeter (MicroCal Inc.—Northampton, Mass.). Data points were collected every 2 seconds, without subsequent filtering. α-interferon solution placed in 1.3625 mL cell was titrated using a 250 μL syringe filled with concentrated perturbant solution. A certain amount of titrant was injected every 3-5 minutes for up to 55 injections.
A reference experiment to correct for the heat of mixing of two solutions, was performed identically except that the reaction cell was filled with buffer without active agent.
Analysis of the data was performed using the software developed at the Johns Hopkins University Biocalorimetry Center.
The titration at pH 7.2 included 53 injections of 2 μL of the perturbant of Example 30 (50 mg/mL=191.6 mM (MW 261)) and α-interferon (1.3 mg/mL=0.067 mM (MW 19400)).
The titration at pH 7.2 included two runs of […] each of 5 μL of perturbant (50 mg/mL=181 mM (FW 277)) and α-interferon (2.31 mg/mL=0.119 mM, (MW 19400)).
ITC was performed according to the method of Example 24 with 40 injections of 5 μL of the perturbant benzoyl para-amino phenylbutyric acid (7.5 mg/mL=24.59 mM, (FW 305)) and α-interferon (2.5 mg/mL=0.129 mM, (MW 19400)).

Molecule: Insulin: porcine insulin (MW 6,000)
Tm (Cp, max) ([1]; 0.0 M GuHCl, 50 mM phosphate pH 7.5): 78.3 °C | Tm (Cp, max) ([1]; 0.5 M GuHCl, pH 7.5): 79.3 °C | Tm (Cp, max) ([1]; 1.0 M GuHCl, pH 7.5): 77.5 °C | Tm (Cp, max) ([1]; 2.0 M GuHCl, pH 7.5): 69.7 °C | Tm (Cp, max) ([1]; 3.0 M GuHCl, pH 7.5): no transition observed | Tm (Cp, max) ([2]; 0.0 M NaCl): 78.3 °C | Tm (Cp, max) ([2]; 0.25 M NaCl): 80.7 °C | Tm (Cp, max) ([2]; 0.5 M NaCl): 80.7 °C | Tm (Cp, max) ([2]; 1.0 M NaCl): 80.7 °C

Kd [3]: 129 µM | Kd [4]: 0.00699 µM | N [5]: 11.6 | delta H [5]: 0.277 kcal/mol | delta S [5]: 38.3 cal/mol ° K | N [6]: 0.8 | delta H [6]: 0.553 kcal/mol | delta S [6]: 19.8 cal/mol ° K
Molecule: thermal condensation product of glutamic acid, aspartic acid, tyrosine, and phenyl-alanine (Glu-Asp-Tye-Phe) fractionated through a 3000 molecular weight cut-off filter

Molecule: α-Interferon
Tm of α-interferon [7]: 67.12 °C | ΔH of α-interferon [7]: 72.562 kcal/mol | Tm ([8]; [GuHCl] 0.0 M): 67.12 °C | ΔH ([8]; [GuHCl] 0.0 M): 72.562 kcal/mol | Tm ([8]; [GuHCl] 0.5 M): 64.43 °C | ΔH ([8]; [GuHCl] 0.5 M): 50.827 kcal/mol | Tm ([8]; [GuHCl] 1.0 M): 63.04 °C | ΔH ([8]; [GuHCl] 1.0 M): 41.705 kcal/mol | Tm ([8]; [GuHCl] 1.5 M): 60.11 °C | ΔH ([8]; [GuHCl] 1.5 M): 29.52 kcal/mol | Tm ([8]; [GuHCl] 2.0 M): 56.32 °C | ΔH ([8]; [GuHCl] 2.0 M): 24.98 kcal/mol | Tm ([8]; [GuHCl] 3.0 M): 45.90 °C | ΔH ([8]; [GuHCl] 3.0 M): 20.577 kcal/mol | Tm ([9]; pH 4.1): 65.64 °C | ΔH ([9]; pH 4.1): 60.47 kcal/mol | Tm ([9]; pH 5.0): 67.32 °C | ΔH ([9]; pH 5.0): 69.782 kcal/mol | Tm ([9]; pH 6.0): 65.34 °C | ΔH ([9]; pH 6.0): 45.58 kcal/mol | Tm ([9]; pH 7.2): 66.84 °C | ΔH ([9]; pH 7.2): 732.717 kcal/mol

Kd [10]: 100 µM | Maximum concentration at which the solution was still transparent [11]: ≥ 8 mg/mL | log 10 Ka (1), Ka=association constant [12]: 3.343 | ΔH (1) [12]: 791.5726 cal/Mole perturbant | n (1), # of complexed perturbant molecules ([12]; curve fitting, multiple independent sites): 23.7
Molecule: O=C(O)CCCc1ccc(NC(=O)c2ccccc2)cc1 [benzoyl para-amino phenylbutyric acid]
